{"source": "paper PMC3568255", "about": "(Protein expression and purification, 2012)", "key": {"SEC": {"target": "the molecule itself", "test": "SEC"}, "[1]": {"target": "MBP-CLR ECD-H6:RAMP2 ECD-H6 complex (recombinant AM receptor ECD complex) (human, UniProt Q16602 29-144; O60895 36-140)", "sequence (Q16602 29-144, one chain of several)": "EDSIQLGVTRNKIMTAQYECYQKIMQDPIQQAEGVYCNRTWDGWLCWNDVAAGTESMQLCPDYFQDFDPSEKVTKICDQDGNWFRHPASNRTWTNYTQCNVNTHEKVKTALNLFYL", "test": "AlphaScreen or HTRF"}}, "note": "*: point of attachment. Biotin = O=C1N[C@H]2[C@H](CS[C@H]2CCCCC(=O)*)N1", "data": [{"binder": "RAMP2 ECD-H6 (RAMP2.36-140-H6), isolated extracellular domain of receptor activity modifying protein 2 (domain or fragment, human, UniProt O60895 36-140, looked up) NPHEALAQPLPTTGTPGSEGGTVKNYETAVQFCWNHYKDQMDPIEKDWCDWAMISRPYSTLRDCLEHFAELFDLGFPNPLAERIIFETHQIHFANCSLVQPTFSD", "values": [{"measurement": "stoichiometry N", "setting": "SEC", "value": 3}]}, {"binder": "Biotin-GTATVQKLAHQIYQFTDKDKDNVAPRSKISPQGY-NH2 (SMILES CC[C@H](C)[C@H](NC(=O)[C@H](CCC(N)=O)NC(=O)[C@H](Cc1c[nH]cn1)NC(=O)[C@H](C)NC(=O)[C@H](CC(C)C)NC(=O)[C@H](CCCCN)NC(=O)[C@H](CCC(N)=O)NC(=O)[C@@H](NC(=O)[C@@H](NC(=O)[C@H](C)NC(=O)[C@@H](NC(=O)CNC(=O)CCCC[C@@H]1SC[C@@H]2NC(=O)N[C@@H]21)[C@@H](C)O)[C@@H](C)O)C(C)C)C(=O)N[C@@H](Cc1ccc(O)cc1)C(=O)N[C@@H](CCC(N)=O)C(=O)N[C@@H](Cc1ccccc1)C(=O)N[C@H](C(=O)N[C@@H](CC(=O)O)C(=O)N[C@@H](CCCCN)C(=O)N[C@@H](CC(=O)O)C(=O)N[C@@H](CCCCN)C(=O)N[C@@H](CC(=O)O)C(=O)N[C@@H](CC(N)=O)C(=O)N[C@H](C(=O)N[C@@H](C)C(=O)N1CCC[C@H]1C(=O)N[C@@H](CCCNC(=N)N)C(=O)N[C@@H](CO)C(=O)N[C@@H](CCCCN)C(=O)N[C@H](C(=O)N[C@@H](CO)C(=O)N1CCC[C@H]1C(=O)N[C@@H](CCC(N)=O)C(=O)NCC(=O)N[C@@H](Cc1ccc(O)cc1)C(N)=O)[C@@H](C)CC)C(C)C)[C@@H](C)O)", "note": "[B-AM(19–52)NH2[C21A]]", "values": [{"measurement": "binding result", "setting": "[1]", "value": "binds"}]}]}
